Results reported in US20220251152A1, “COMPOSITIONS AND METHODS FOR SELECTIVE PROTEIN DEGRADATION” (Novartis AG, priority 2019, published 2022).
Positions count from the first letter of the chain named.

B1: construct 774: signal peptide, the HilD tag, a furin cleavage site, and CAR19 (protein)
chain: MALPVTALLLPLALLLHAARPHKRSHTGERPFQCNQCGASFTQKGNLLRHIKLHTGEKPFKCHLCNTASAEARHIKAEMGGTGAEDPRPSRKRRSLGDVGEIVMTQSPATLSLSPGERATLSCRASQDISKYLNWYQQKPGQAPRLLIYHTSRLHSGIPARFSGSGSGTDYTLTISSLQPEDFAVYFCQQGNTLPYTFGQGTKLEIKGGGGSGGGGSGGGGSQVQLQESGPGLVKPSETLSLTCTVSGVSLPDYGVSWIRQPPGKGLEWIGVIWGSETTYYQSSLKSRVTISKDNSKNQVSLKLSSVTAADTAVYYCAKHYYYGGSYAMDYWGQGTLVTVSSTTTPAPRPPTPAPTIASQPLSLRPEACRPAAGGAVHTRGLDFACDIYIWAPLAGTCGVLLLSLVITLYCKRGRKKLLYIFKQPFMRPVQTTQEEDGCSCRFPEEEEGGCELRVKFSRSADAPAYQQGQNQLYNELNLGRREEYDVLDKRRGRDPEMGGKPRRKNPQEGLYNELQKDKMAEAYSEIGMKGERRRGKGHDGLYQGLSTATKDTYDALHMQALPPR
B2: construct 769: signal peptide, CAR19, a 16GS linker, and the HilD tag (protein)
chain: EIVMTQSPATLSLSPGERATLSCRASQDISKYLNWYQQKPGQAPRLLIYHTSRLHSGIPARFSGSGSGTDYTLTISSLQPEDFAVYFCQQGNTLPYTFGQGTKLEIKGGGGSGGGGSGGGGSQVQLQESGPGLVKPSETLSLTCTVSGVSLPDYGVSWIRQPPGKGLEWIGVIWGSETTYYQSSLKSRVTISKDNSKNQVSLKLSSVTAADTAVYYCAKHYYYGGSYAMDYWGQGTLVTVSSTTTPAPRPPTPAPTIASQPLSLRPEACRPAAGGAVHTRGLDFACDIYIWAPLAGTCGVLLLSLVITLYCKRGRKKLLYIFKQPFMRPVQTTQEEDGCSCRFPEEEEGGCELRVKFSRSADAPAYQQGQNQLYNELNLGRREEYDVLDKRRGRDPEMGGKPRRKNPQEGLYNELQKDKMAEAYSEIGMKGERRRGKGHDGLYQGLSTATKDTYDALHMQALPPRGGGGSGGGGTGGGGSGMHKRSHTGERPFQCNQCGASFTQKGNLLRHIKLHTGEKPFKCHLCNTASAEARHIKAEMG
B3: construct 771: signal peptide, CAR19, the HilD tag, and a V5 (protein)
chain: MALPVTALLLPLALLLHAARPEIVMTQSPATLSLSPGERATLSCRASQDISKYLNWYQQKPGQAPRLLIYHTSRLHSGIPARFSGSGSGTDYTLTISSLQPEDFAVYFCQQGNTLPYTFGQGTKLEIKGGGGSGGGGSGGGGSQVQLQESGPGLVKPSETLSLTCTVSGVSLPDYGVSWIRQPPGKGLEWIGVIWGSETTYYQSSLKSRVTISKDNSKNQVSLKLSSVTAADTAVYYCAKHYYYGGSYAMDYWGQGTLVTVSSTTTPAPRPPTPAPTIASQPLSLRPEACRPAAGGAVHTRGLDFACDIYIWAPLAGTCGVLLLSLVITLYCKRGRKKLLYIFKQPFMRPVQTTQEEDGCSCRFPEEEEGGCELRVKFSRSADAPAYQQGQNQLYNELNLGRREEYDVLDKRRGRDPEMGGKPRRKNPQEGLYNELQKDKMAEAYSEIGMKGERRRGKGHDGLYQGLSTATKDTYDALHMQALPPRMHKRSHTGERPFQCNQCGASFTQKGNLLRHIKLHTGEKPFKCHLCNTASAEARHIKAEMGGKPIPNPLLGLDST
B4: 771 (protein)
chain: B3 chain
B5: construct 6761: signal peptide, CAR19, a 16KGS linker, the HilD tag, and a V5 (protein)
chain: MALPVTALLLPLALLLHAARPEIVMTQSPATLSLSPGERATLSCRASQDISKYLNWYQQKPGQAPRLLIYHTSRLHSGIPARFSGSGSGTDYTLTISSLQPEDFAVYFCQQGNTLPYTFGQGTKLEIKGGGGSGGGGSGGGGSQVQLQESGPGLVKPSETLSLTCTVSGVSLPDYGVSWIRQPPGKGLEWIGVIWGSETTYYQSSLKSRVTISKDNSKNQVSLKLSSVTAADTAVYYCAKHYYYGGSYAMDYWGQGTLVTVSSTTTPAPRPPTPAPTIASQPLSLRPEACRPAAGGAVHTRGLDFACDIYIWAPLAGTCGVLLLSLVITLYCKRGRKKLLYIFKQPFMRPVQTTQEEDGCSCRFPEEEEGGCELRVKFSRSADAPAYQQGQNQLYNELNLGRREEYDVLDKRRGRDPEMGGKPRRKNPQEGLYNELQKDKMAEAYSEIGMKGERRRGKGHDGLYQGLSTATKDTYDALHMQALPPRKGGGSKGGGTKGGGSKMHKRSHTGERPFQCNQCGASFTQKGNLLRHIKLHTGEKPFKCHLCNTASAEARHIKAEMGGKPIPNPLLGLDST
B6: construct 768: signal peptide, CAR19, a 16GS linker, the HilD tag, and a V5 (protein)
chain: B5 chain with K487G, K492G, K497G, K502G
B7: construct 773: modified signal peptide, the HilD tag, a furin cleavage site, and CAR19 (protein)
chain: MALPVTALLLPLALLLHAARPRSSLAHKRSHTGERPFQCNQCGASFTQKGNLLRHIKLHTGEKPFKCHLCNTASAEARHIKAEMGGTGAEDPRPSRKRRSLGDVGEIVMTQSPATLSLSPGERATLSCRASQDISKYLNWYQQKPGQAPRLLIYHTSRLHSGIPARFSGSGSGTDYTLTISSLQPEDFAVYFCQQGNTLPYTFGQGTKLEIKGGGGSGGGGSGGGGSQVQLQESGPGLVKPSETLSLTCTVSGVSLPDYGVSWIRQPPGKGLEWIGVIWGSETTYYQSSLKSRVTISKDNSKNQVSLKLSSVTAADTAVYYCAKHYYYGGSYAMDYWGQGTLVTVSSTTTPAPRPPTPAPTIASQPLSLRPEACRPAAGGAVHTRGLDFACDIYIWAPLAGTCGVLLLSLVITLYCKRGRKKLLYIFKQPFMRPVQTTQEEDGCSCRFPEEEEGGCELRVKFSRSADAPAYQQGQNQLYNELNLGRREEYDVLDKRRGRDPEMGGKPRRKNPQEGLYNELQKDKMAEAYSEIGMKGERRRGKGHDGLYQGLSTATKDTYDALHMQALPPR

System: CAR19 fused to HilD tag and/or FurON
Test: Flow cytometry of surface CAR expression on JNL cells, 10 μM lenalidomide and/or bazedoxifene 24 hours
Type: cell-based, human
Conditions: for effect of lenalidomide on surface CAR expression of the construct: 10 μM lenalidomide for 24 hours
[1] = surface CAR on transduced JNL cells, 10 μM lenalidomide, 24 hours

Text: Next, the surface expression of CAR19 on stably transduced JNL cells was examined by flow cytometry. […] On Day 2, cells were harvested, stained using biotinylated-protein L (Genscript, M00097) followed by PE conjugated streptavidin (Jackson Lab, 016-110-084), and subjected to flow cytometry analysis using Fortessa instrument.

Molecule	effect of lenalidomide on surface CAR expression of the construct	other results
B1	did not impact surface CAR expression	
B2	significantly reduced surface CAR expression	
B3	significantly reduced surface CAR expression	
B4		% reduction in CAR expression [1]: 87%; Effect of lenalidomide [1]: Yes; CAR Expression (surface CAR on transduced JNL cells, flow cytometry, FurON constructs only in presence of bazedoxifene): Yes
B5	significantly reduced surface CAR expression	
B6	significantly reduced surface CAR expression	
B7	did not impact surface CAR expression	
